Measured values as given in US20250206836A1 (ONA THERAPEUTICS S L, published 2025).

Legend:
[1] = target: T1, human CD36 (on HEK 293 or SCC25 cells) (human, UniProt P16671 2-472); test: FACS, HEK 293 cells
T1 construct: Overexpressed transiently or stably on HEK 293 cells, or stably on SCC25 cells; also called huCD36

[2] = target: T2, mouse CD36 (on HEK 293 cells) (mouse, UniProt Q08857 1-472); test: FACS, HEK 293 cells transiently overexpressing CD36;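 further: antibody binding to transfected cells detected by flow cytometry with a fluorescent anti-human secondary antibody, EC50 from a four-parameter sigmoidal fit of mean fluorescence intensity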
T2 construct: also called Murine CD36
T2 sequence (Q08857 whole entry): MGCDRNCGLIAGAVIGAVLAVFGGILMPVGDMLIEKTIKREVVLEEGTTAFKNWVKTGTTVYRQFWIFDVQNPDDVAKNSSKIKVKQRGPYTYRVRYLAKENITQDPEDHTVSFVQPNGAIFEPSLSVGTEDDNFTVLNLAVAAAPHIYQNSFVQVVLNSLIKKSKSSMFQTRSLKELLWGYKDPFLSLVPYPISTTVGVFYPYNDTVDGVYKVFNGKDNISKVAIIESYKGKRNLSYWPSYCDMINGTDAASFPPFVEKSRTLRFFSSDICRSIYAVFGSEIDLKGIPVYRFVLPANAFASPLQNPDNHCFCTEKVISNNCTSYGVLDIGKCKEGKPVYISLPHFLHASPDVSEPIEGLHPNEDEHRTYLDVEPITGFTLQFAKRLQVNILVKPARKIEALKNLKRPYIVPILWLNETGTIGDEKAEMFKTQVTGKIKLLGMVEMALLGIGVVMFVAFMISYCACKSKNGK

[3] = target: T3, nonhuman primate CD36 (on HEK 293 cells) (cynomolgus monkey / rhesus macaque, UniProt P16671 2-472 (human entry)); test: as above
T3 construct: also called non-human primate CD36 (cynomolgus)
T3 sequence (P16671 other isoform, or with tags, fused parts or gaps limits assumed): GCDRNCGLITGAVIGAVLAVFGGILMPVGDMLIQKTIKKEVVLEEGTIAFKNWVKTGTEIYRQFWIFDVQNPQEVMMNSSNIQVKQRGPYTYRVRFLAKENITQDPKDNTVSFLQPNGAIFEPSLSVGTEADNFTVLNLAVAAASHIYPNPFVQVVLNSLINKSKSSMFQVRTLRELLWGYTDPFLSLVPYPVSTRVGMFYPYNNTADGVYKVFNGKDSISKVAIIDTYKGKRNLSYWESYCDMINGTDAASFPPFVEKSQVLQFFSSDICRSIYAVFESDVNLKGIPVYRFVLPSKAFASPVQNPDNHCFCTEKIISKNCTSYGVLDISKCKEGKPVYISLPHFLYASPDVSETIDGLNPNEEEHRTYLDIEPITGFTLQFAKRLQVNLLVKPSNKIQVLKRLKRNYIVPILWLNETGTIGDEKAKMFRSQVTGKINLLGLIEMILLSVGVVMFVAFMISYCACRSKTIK

T1 sequence (P16671 2-472 limits assumed): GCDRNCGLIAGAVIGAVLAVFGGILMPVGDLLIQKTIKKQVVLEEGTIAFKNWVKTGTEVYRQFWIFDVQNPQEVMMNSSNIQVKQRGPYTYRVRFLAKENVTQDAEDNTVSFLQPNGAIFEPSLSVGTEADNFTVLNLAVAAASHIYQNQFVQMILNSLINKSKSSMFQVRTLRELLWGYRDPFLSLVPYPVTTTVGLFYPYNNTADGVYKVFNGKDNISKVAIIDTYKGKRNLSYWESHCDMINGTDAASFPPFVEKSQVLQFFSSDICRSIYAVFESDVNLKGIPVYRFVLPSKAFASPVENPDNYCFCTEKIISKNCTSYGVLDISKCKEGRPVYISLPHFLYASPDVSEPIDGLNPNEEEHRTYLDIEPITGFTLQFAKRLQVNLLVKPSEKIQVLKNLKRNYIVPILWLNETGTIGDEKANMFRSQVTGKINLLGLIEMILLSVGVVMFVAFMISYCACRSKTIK

binding result [1]: binds | EC50 [2]: 18.2 nM | EC50 [3]: 5.03 nM
B1: 20G04 (antibody, human IgG1, V domains shown)
VH: QIQLVQSGPELVKPGASVKISCETSGHTFTEYTMHWVKQSHGKSLEWIGGIYPNNGATKYNQKFKGKATLTVDKSSSTAYMELRSLTSEDSAVYYCARDRYDVWFAYWGQGTLVTVSA
VL: ETTVTQSPASLSVATGEKVTIRCITSTDIDDDMNWYQQKPGEPPKLLISEGNTLRPGVPSRFSSGGYGTDFVFTVENMLSEDVADYYCLQSDNLPLTFGAGTKLELK
notes: Chimeric: mouse variable regions on human IgG1 LALA (L234A/L235A)
